Data from the RNAGym collection of RNA variant scans (doi:10.7554/elife.80360).

B1: HDV Ribozyme (parent)
chain: GGCCGGCAUGGUCCCAGCCUCCUCGCUGGCGCCGGCUGGGCAACAUUCCGAGGGGACCGUCCCCUCGGUAAUGGCGAAUGGGACCCA

Variants of: B1
Assay: self-cleavage, relative activity (ratio to wild type); higher = more cleavage; co-transcriptional

Variant	self-cleavage
GGCCGGCAUGGUCCCAGUCUCCUCGCUGGCGCCGGCUGGGCAAUAUUCCGAGGGGACCGUCCCCUCGGUAAUGGCGAAUGGGACCCA	0.258
GGCCGGCAUGGUCCCAGCAUCCUCGCUGGCGCCGGCUGGGCAACAUUCCGAGGGGUCCGUCCCCUCGGUAAUGGCGAAUGGGACCCA	0.122
GGCCGGCAUGGUCCCAGCAUCAUCGCUGGCGCCGGCUGGGCAACAUUCCGAGGGGACCGUCCCCUCGGUAAUGGCGAAUGGGACCCA	0.112
GGCCGGCAUGGUCCCAGUCUCCUCGCUGGCGCCGGCUGGGCAACAUUCCGAGGUGACCGUCCCCUCGGUAAUGGCGAAUGGGACCCA	0.661
GGCCGGCAUGGUCCCAGUCUCCUCGCUGGCGCCGGAUGGGCAACAUUCCGAGGGGACCGUCCCCUCGGUAAUGGCGAAUGGGACCCA	0.0739
GGCCGGCAUGGUCCCAGUCUCCUCGCUGGCGCCGGUUGGGCAACAUUCCGAGGGGACCGUCCCCUCGGUAAUGGCGAAUGGGACCCA	0.198
GGCCGGCAUGGUCCCAGCAUCCUCGCUGGCGCCGGCUGGGCAACAUUCCGAGGGGACCGUCCCCUCGGUAAUGGCGAAUGGGACCCU	0.223
GGCCGGCAUGGUCCCAGUCUCCUCGCUGGCGCCGGCUGGGCAACAUUCCGAGGGGACCGUCCCCUCGGUAAUGGCUAAUGGGACCCA	1.05
GGCCGGCAUGGUCCCAGUCUCCUCGCUGGCGCCGGCUGGGCAACAUUCCGAGGGGACCGUCUCCUCGGUAAUGGCGAAUGGGACCCA	0.831
GGCCGGCAUGGUCCCAGUCUCUUCGCUGGCGCCGGCUGGGCAACAUUCCGAGGGGACCGUCCCCUCGGUAAUGGCGAAUGGGACCCA	0.121
GGCCGGCAUGGUCCCAGUCUCCUCGCUGGCGCCGGCUGGGCAACAUUCCGAGGGGACCGUCCCCUCGGUAAUGGCGAAUGGAACCCA	0.194
GGCCGGCAUGGUCCCAGUCUCCUCGCUGGCGCCGGCUAGGCAACAUUCCGAGGGGACCGUCCCCUCGGUAAUGGCGAAUGGGACCCA	0.176
GGCCGGCAUGGUCCCAGUCUCCUCGCUGGCGCCCGCUGGGCAACAUUCCGAGGGGACCGUCCCCUCGGUAAUGGCGAAUGGGACCCA	0.155
GGCCGGCAUGGUCCCAGUCUCCUCGCUGGCGCCUGCUGGGCAACAUUCCGAGGGGACCGUCCCCUCGGUAAUGGCGAAUGGGACCCA	0.0455
GGCCGGCAUGGUCCCAGUCUCCUCGCUGGCGCCAGCUGGGCAACAUUCCGAGGGGACCGUCCCCUCGGUAAUGGCGAAUGGGACCCA	0.117
GGCCGGCAUGGUCCCAGCAUUCUCGCUGGCGCCGGCUGGGCAACAUUCCGAGGGGACCGUCCCCUCGGUAAUGGCGAAUGGGACCCA	0.134
GGCCGGCAUGGUCCCAGUCUCCUCGCUGGCGCCGGCUGGGAAACAUUCCGAGGGGACCGUCCCCUCGGUAAUGGCGAAUGGGACCCA	0.597
GGCCGGCAUGGUCCCAGUCUCCUCGCUGGCGCCGGCUGGGCAACAUUCCGAGGGGACCAUCCCCUCGGUAAUGGCGAAUGGGACCCA	0.896
GGCCGGCAUGGUCCCAGUCUCCUCGCUGGCGCCGGCUGGGCAACAUUCCGAGGGGACCUUCCCCUCGGUAAUGGCGAAUGGGACCCA	0.67
GGCCGGCAUGGUCCCAGUCUCCUCGCUGGCGCCGGCUGGGCAACAUUCCGAGGGGAGCGUCCCCUCGGUAAUGGCGAAUGGGACCCA	0.831
GGCCGGCAUGGUCCCAGUCUCCUCGCUGGCGCCGGCUGGGCAACAGUCCGAGGGGACCGUCCCCUCGGUAAUGGCGAAUGGGACCCA	0.277
GGCCGGCAUGGUCCCAGUCUCCUCGCUGGCGCCGGCUGGGCAACAUUCCGAGGGGACCGACCCCUCGGUAAUGGCGAAUGGGACCCA	0.852

Variant	self-cleavage
GGCCGGCAUGGUCCCAGUCUCCUCGCUGGCGCCGGCUGGGCAACAUUCCGAGGGGACCGGCCCCUCGGUAAUGGCGAAUGGGACCCA	0.633
GGCCGGCAUGGUCCCAGUCUCCUCGCUGGCGCCGGCUGGGCAACAUUCCGAGGGGACCGUCCCCUCGUUAAUGGCGAAUGGGACCCA	0.635
GGCCGGCAUGGUCCCAGUCUCCUCGCUGGCGCCGGCUGGGCAACAUUCCGAGGGGACCGUCCCCUCGCUAAUGGCGAAUGGGACCCA	0.544
GGCCGGCAUGGUCCCAGUCUCCUCGCUGGCGCCGGCUGGGCAACAUUCCGAGGGGACCGUCCGCUCGGUAAUGGCGAAUGGGACCCA	0.607
GGCCGGCAUGGUCCCAGUCUCCUCGCUGGCGCCGGCUGGGCAACAUUCCGAGGGGACCGUCCUCUCGGUAAUGGCGAAUGGGACCCA	0.733
GGCCGGCAUGGUCCCAGUCUCCUCGCUGGCGCCGGCUGGGCAACAUUCCGAGGGGACCGUCCCCUCGGGAAUGGCGAAUGGGACCCA	0.453
GGCCGGCAUGGUCCCAGUCUCCUCGCUGGCACCGGCUGGGCAACAUUCCGAGGGGACCGUCCCCUCGGUAAUGGCGAAUGGGACCCA	0.0702
GGCCGGCAUGGUCCCAGUCUCCUCGCUGGCGCCGGCUGGGCAACAUUCCGAGGGGACCGUCCCCCCGGUAAUGGCGAAUGGGACCCA	0.831
GGCCGGCAUGGUCCCAGUCUCCUCGCUGGCGCCGGCUGGGCAACAUUCCGAGGGGACCGUCCCCUCGGUAAUUGCGAAUGGGACCCA	0.111
GGCCGGCAUGGUCCCAGUCUCCUCGCUGGCGCGGGCUGGGCAACAUUCCGAGGGGACCGUCCCCUCGGUAAUGGCGAAUGGGACCCA	0.252
GGCCGGCAUGGUCCCAGUCUCCUCGCUGGCGCCGGCUGGGCAACAUUCCGAGGGGACCGUCCCCUCGGUAAUGGCGAAGGGGACCCA	0.119
GGCCGGCAUGGUCCCAGUCUCCUCGCUGGCGCCGGCUGGGCAACAUUCCGAGGGGACCGUCCCCUGGGUAAUGGCGAAUGGGACCCA	0.813
GGCCGGCAUGGUCCCAGCAUCCUCGCUGGCGCCGGCUGGGCAUCAUUCCGAGGGGACCGUCCCCUCGGUAAUGGCGAAUGGGACCCA	0.0222
GGCCGGCAUGGUCCCAGUCUCCUCGCUGGCGCCGGCUGGGCAACAUUCCGAGGGGACCGUCCCCUCGGUAAUGGCGAAUGUGACCCA	0.281
GGCCGGCAUGGUCCCAGUCUCCUCGCUGGCGCCGGCUGGGCAACAUUCCGAGGGGACCGUCCCCUCGGUAAUGGCGAAUAGGACCCA	0.196
GGCCGGCAUGGUCCCAGUCUCCUCGCUGGCGCCGGCUGGGCAACAUUCCGAGGGGACCGUCCCCUCGGUAAUGGCGAAUCGGACCCA	0.102
GGCCGGCAUGGUCCCAGUCUCCUCGCUGGCGCCGGCUGGGCAACAUUCCGAGGGGACUGUCCCCUCGGUAAUGGCGAAUGGGACCCA	0.554
GGCCGGCAUGGUCCCAGCAUCCUUGCUGGCGCCGGCUGGGCAACAUUCCGAGGGGACCGUCCCCUCGGUAAUGGCGAAUGGGACCCA	0.0674
GGCCGGCAUGGUCCCAGCAUCCUCGCUGGCGCCGGCUGGGCAACAUUCCGAGGGGACCGUCCCCUCGGUAAUGGCGACUGGGACCCA	0.0248
GGCCGGCAUGGUCCCAGCAUCCUCGCUGGCGCCGGGUGGGCAACAUUCCGAGGGGACCGUCCCCUCGGUAAUGGCGAAUGGGACCCA	0.0923
GGCCGGCAUGGUCCCAGUCUCCUCGCUGGCGUCGGCUGGGCAACAUUCCGAGGGGACCGUCCCCUCGGUAAUGGCGAAUGGGACCCA	0.327
GGCCGGCAUGGUCCCAGUCUCCUCGCUGGCGCCGGCUGGCCAACAUUCCGAGGGGACCGUCCCCUCGGUAAUGGCGAAUGGGACCCA	0.281

Variant	self-cleavage
GGCCGGCAUGGUCCCAGUCUCCUCGCUGGCGCCGGCUGGACAACAUUCCGAGGGGACCGUCCCCUCGGUAAUGGCGAAUGGGACCCA	0.691
GGCCGGCAUGGUCCCAGUCUCCUCGCUGGCGCCGGCUGGGCAACAUUCCGAGGGGACCGUCCCCUCUGUAAUGGCGAAUGGGACCCA	0.665
GGCCGGCAUGGUCCCAGUCUCCUCGCUGGCGCCGGCUGGGCAACAUUCCGAGGGGACCGUCCCCUCAGUAAUGGCGAAUGGGACCCA	0.468
GGCCGGCAUGGUCCCAGUCUCCUCGCUGGCGCCGGCUGGGCAACAUUCCGAGGGGACCGUCCCCUCCGUAAUGGCGAAUGGGACCCA	0.436
GGCCGGCAUGGUCCCAGUCUCCUCGCUGGCGCCGGCUGGGCAACAUUCCGAGGGGACCGUCCCCUCGGUAAUGGCGAAUGGGACCCG	0.733
GGCCGGCAUGGUCCCAGUCUCCACGCUGGCGCCGGCUGGGCAACAUUCCGAGGGGACCGUCCCCUCGGUAAUGGCGAAUGGGACCCA	0.519
GGCCGGCAUGGUCCCAGUCUCCCCGCUGGCGCCGGCUGGGCAACAUUCCGAGGGGACCGUCCCCUCGGUAAUGGCGAAUGGGACCCA	0.415
GGCCGGCAUGGUCCCAGCAUCCUCGCUGGAGCCGGCUGGGCAACAUUCCGAGGGGACCGUCCCCUCGGUAAUGGCGAAUGGGACCCA	0.0357
GGCCGGCAUGGUCCCAGUCGCCUCGCUGGCGCCGGCUGGGCAACAUUCCGAGGGGACCGUCCCCUCGGUAAUGGCGAAUGGGACCCA	0.277
GGCCGGCAUGGUCCCAGUCACCUCGCUGGCGCCGGCUGGGCAACAUUCCGAGGGGACCGUCCCCUCGGUAAUGGCGAAUGGGACCCA	0.0339
GGCCGGCAUGGUCCCAGUCUCCUCGCGGGCGCCGGCUGGGCAACAUUCCGAGGGGACCGUCCCCUCGGUAAUGGCGAAUGGGACCCA	0.391
GGCCGGCAUGGUCCCAGUCUCCUCGCUGGCGCCGGCUGGGCAACAUUCCGAGGGGACCGUCCCCUCGGUAAGGGCGAAUGGGACCCA	0.287
GGCCGGCAUGGUCCCAGUCUCCUCGCUGGCGCCGGCUGGGCAACAUUCCGAGGGGACCGUCCCCUCGGUAAAGGCGAAUGGGACCCA	0.175
GGCCGGCAUGGUCCCAGUCUCCUCGCUGGCGCCGGCUGGGCAACAUUCCGAGGGGACCGUCCCCUCGGUAACGGCGAAUGGGACCCA	0.193
GGCCGGCAUGGUCCCAGUCUCCUCGCUGCCGCCGGCUGGGCAACAUUCCGAGGGGACCGUCCCCUCGGUAAUGGCGAAUGGGACCCA	0.196
GGCCGGCAUGGUCCCAGUCUCCUCGCUGGCGCCGGCUGGGCAACAUUCCGAGGGGACCGUCCCCUCGGUAAUGGCGAAUGGGACGCA	0.975
GGCCGGCAUGGUCCCAGUGUCCUCGCUGGCGCCGGCUGGGCAACAUUCCGAGGGGACCGUCCCCUCGGUAAUGGCGAAUGGGACCCA	0.0297
GGCCGGCAUGGUCCCAGUUUCCUCGCUGGCGCCGGCUGGGCAACAUUCCGAGGGGACCGUCCCCUCGGUAAUGGCGAAUGGGACCCA	0
GGCCGGCAUGGUCCCAGUCUUCUCGCUGGCGCCGGCUGGGCAACAUUCCGAGGGGACCGUCCCCUCGGUAAUGGCGAAUGGGACCCA	0.0911
GGCCGGCAUGGUCCCAGUCUACUCGCUGGCGCCGGCUGGGCAACAUUCCGAGGGGACCGUCCCCUCGGUAAUGGCGAAUGGGACCCA	0.115
